Data set [1] can be described thus: Thermal stability: residual activity after incubation at 60° C. for one hour. Format: biochemical. Particulars: crude recombinant enzyme; after incubation at 60° C. for 1 hour. The method, then:
Thermal stability of the enzyme was investigated by measuring the activity of the enzyme after incubation at 60° C. for one hour and finding its relative activity supposing that the activity at 60° C. under the reaction conditions (10 minutes) used for determining the optimum temperature in the above 2 shown in Table 2 was 100. As heat treatment conditions, the crude enzyme solution, a buffer (50 mM tris-HCl, pH 7.5), and 2 mM MgCl2 were used to give a total amount of 200 p1 and after retaining at 60° C. for one hour, the reaction mixture was cooled for 10 minutes in ice water. The residual enzyme activity was then measured by the conventional method.
The activity of each of the present enzyme (crude recombinant enzyme) and the crude enzyme of the control enzyme after incubation at 60° C. for 1 hour was measured and a relative activity of it was determined supposing that the activity at 60° C. under the reaction conditions (10 minutes) for determining the optimum temperature in the above 2 shown in Table 2 is 100. The relative activity was used as a heat resistance index of the enzyme. As heat treatment conditions, the crude enzyme solution, a buffer (50 mM tris-HCl, pH 7.5), and 2 mM MgCl2 were used to give a total amount of 200 p1 and after retaining at 60° C. for one hour, the reaction mixture was cooled for 10 minutes in ice water. The residual enzyme activity was measured by the conventional method.

Data set [2] in a line: Ketose 3-epimerase activity ratio (T70/T50) at reaction temperature of 70° C. to 50° C. Format: biochemical. The conditions noted are these: crude recombinant enzyme; ratio of activity at 70° C. to activity at 50° C., 10 min reaction. Here is the method:
An enzyme having higher heat resistance than an amino acid substitution-free wild type enzyme can be obtained by introducing mutation into the gene of the ketose 3-epimerase of the present invention and substituting the corresponding amino acid residue with another amino acid residue by a site-directed mutagenesis operation to prepare various amino acid-substituted mutants. The heat resistance is evaluated by two indices, that is, a ketose 3-epimerase activity ratio (T70/T50) at the reaction temperatures of 70° C. to 50° C. and a residual activity after incubation at 60° C. for one hour.
Heat resistance of the present enzyme (crude recombinant enzyme) and the crude enzyme of the control enzyme was investigated by measuring an activity at 70° C. and an activity at 50° C. under the reaction conditions (10 minutes) used for determining the optimum temperature in the above 2 shown in Table 2 and finding their ratio (T70/T50).

B1: Ketose 3-epimerase mutant 7: amino acid-substituted mutant of SEQ ID NO: 1 (protein)
chain: MKIGCHGLVWTGRFDAEGIRYSVQKTKEAGFDLIEFPLMDPFSFDVATAKSALAEHGLSVSASLGLSEATDVSSEDPAIVKAGEELLNRALDVLAELGATDFCGVIYSAMKKYMEPATEQGLSNSKAAVGRVVDRAAGLGINVSLEVVNRYETNVLNTGRQALSYLSDVKRPNLGVHLDTYHMNIEESDMFSPVLDTAEVLKYVHIGESHRGYLGTGSVDFDNFFKALGRIGYDGPVVFESFSSAVVAPDLSRMLGIWRNLWADNEELGAHANAFIRDKLTAIKTIELH
modifications: Arthrobacter histidinolovorans
On to B1, for which the “Residual activity (%)” value in data set [1] amounted to 83.1%. The T70/T50 in data set [2] came to 2.03.

B2: Ketose 3-epimerase mutant 15: amino acid-substituted mutant of SEQ ID NO: 1 (protein)
chain: MKIGCHGLVWTGRFDAEGIRYSVQKTKEAGFDLIEFPLMDPFSFDVATAKSALAEHGLSVSASLGLSEATDVSSEDPAIVKAGEELLNRALDVLAELGATEFCGVIYSAMKKYMEPATEQGLSNSKAAVGRVVDRAAGLGINVSLEVVNRYETNVLNTGRQALSYLSDVKRPNLGVHLDTYHMNIEESDMFSPVLDTAEVLKYVHIGESHRGYLGTGSVDFDNFFKALGRIGYDGPVVFESFSSAVVAPDLSRMLGIWRNLWADNEELGAHANAFIRDKLTAIKTIELH
modifications: Arthrobacter histidinolovorans
Take B2: the “Residual activity (%)” value in data set [1] was 89.3%. In addition, the T70/T50 in data set [2] came to 1.90.

B3: Ketose 3-epimerase mutant 12: amino acid-substituted mutant of SEQ ID NO: 1 (protein)
chain: MKIGCHGLVWTGRFDAEGIRYSVQKTKEAGFDLIEFPLMDPFSFDVATAKSALAEHGLTASASLGLSEATDVSSEDPAIVKAGEELLNRALDVLAELGATDFCGVIYSAMKKYMEPATEQGLSNSKAAIGRVVDRAAGLGINVSLEVVNRYETNVLNTGRQALSYLSDVKRPNLGVHLDTYHMNIEESDMFSPVLDTAEALKYVHIGESHRGYLGTGNVDFDNFFKALGRIGYDGPVVFESFSSAVVAPDLSRMLGIWRNLWADNEELGAHANAFIRDKLTAIKTIELH
modifications: Arthrobacter histidinolovorans
On to B3, for which the “Residual activity (%)” value in data set [1] is 90.5%. Besides, in data set [2], the T70/T50 is 1.94.

B4: Ketose 3-epimerase mutant 10: amino acid-substituted mutant of SEQ ID NO: 1 (protein)
chain: MKIGCHGLVWTGRFDAEGIRYSVQKTKEAGFDLIEFPLMDPFSFDVATAKSALAEHGLSVSASLGLSEATDVSSEDPAIVKAGEELLNRALDVLAELGATDFCGVIYSAMKKYMEPATEQGLSNSKAAVGRVVDRAAGLGINVSLEVVNRYETNVLNTGRQALSYLSDVKRPNLGVHLDTYHMNIEESDMFSPVLDTAEALKYVHIGESHRGYLGTGNVDFDNFFKALGRIGYDGPVVFESFSSAVVAPDLSRMLGIWRNLWADNEELGAHANAFIRDKLTAIKTIELH
modifications: Arthrobacter histidinolovorans
B4: the “Residual activity (%)” value in data set [1] worked out at 79.5%. For the same molecule, in data set [2], the T70/T50 is 1.98.

B5: Ketose 3-epimerase mutant 8: amino acid-substituted mutant of SEQ ID NO: 1 (protein)
chain: MKIGCHGLVWTGRFDAEGIRYSVQKTKEAGFDLIEFPLMDPFSFDVATAKSALAEHGLTASASLGLSEATDVSSEDPAIVKAGEELLNRALDVLAELGATDFCGVIYSAMKKYMEPATEQGLSNSKAAIGRVVDRAAGLGINVSLEVVNRYETNVLNTGRQALSYLSDVKRPNLGVHLDTYHMNIEESDMFSPVLDTAEVLKYVHIGESHRGYLGTGNVDFDNFFKALGRIGYDGPVVFESFSSAVVAPDLSRMLGIWRNLWADNEELGAHANAFIRDKLTAIKTIELH
modifications: Arthrobacter histidinolovorans
For the molecule B5, the “Residual activity (%)” value in data set [1] amounted to 115.3%. Further, in data set [2], the T70/T50 is recorded as 2.03.

B6: Ketose 3-epimerase mutant 13: amino acid-substituted mutant of SEQ ID NO: 1 (protein)
chain: MKIGCHGLVWTGRFDAEGIRYSVQKTKEAGFDLIEFPLMDPFSFDVATAKSALAEHGLTASASLGLSEATDVSSEDPAIVKAGEELLNRALDVLAELGATDFCGVIYSAMKKYMEPATEQGLSNSKAAIGRVVDRAAGLGINVSLEVVNRYETNVLNTGRQALSYLSDVKRPNLGVHLDTYHMNIEESDMFSPVLDTAEVLKYVHIGESHRGYLGTGSVDFDNFFKALGRIGYDGPVVFESFSSAVVAPDLSRMLGIWRNLWADNEELGAHANAFIRDKLTAIKTIELH
modifications: Arthrobacter histidinolovorans
B6: the “Residual activity (%)” value in data set [1] is 83.7%. Also, the T70/T50 in data set [2] came to 1.94.

B7: Ketose 3-epimerase mutant 17: amino acid-substituted mutant of SEQ ID NO: 1 (protein)
chain: MKIGCHGLVWTGRFDAEGIRYSVQKTKEAGFDLIEFPLMDPFSFDVATAKSALAEHGLTASASLGLSEATDVSSEDPAIVKAGEELLNRALDVLAELGATEFCGVIYSAMKKYMEPATEQGLSNSKAAVGRVVDRAAGLGINVSLEVVNRYETNVLNTGRQALSYLSDVKRPNLGVHLDTYHMNIEESDMFSPVLDTAEVLKYVHIGESHRGYLGTGSVDFDNFFKALGRIGYDGPVVFESFSSAVVAPDLSRMLGIWRNLWADNEELGAHANAFIRDKLTAIKTIELH
modifications: Arthrobacter histidinolovorans
Consider B7, for which the “Residual activity (%)” value in data set [1] came to 62.3%. Further, the T70/T50 in data set [2] was 1.89.

B8: Ketose 3-epimerase mutant 9: amino acid-substituted mutant of SEQ ID NO: 1 (protein)
chain: MKIGCHGLVWTGRFDAEGIRYSVQKTKEAGFDLIEFPLMDPFSFDVATAKSALAEHGLSVSASLGLSEATDVSSEDPAIVKAGEELLNRALDVLAELGATDFCGVIYSAMKKYMEPATEQGLSNSKAAVGRVVDRAAGLGINVSLEVVNRYETNVLNTGRQALSYLSDVKRPNLGVHLDTYHMNIEESDMFSPVLDTAEALKYVHIGESHRGYLGTGSVDFDNFFKALGRIGYDGPVVFESFSSAVVAPDLSRMLGIWRNLWADNEELGAHANAFIRDKLTAIKTIELH
modifications: Arthrobacter histidinolovorans
As for B8, the “Residual activity (%)” value in data set [1] came to 65.6%. In data set [2], the T70/T50 turned out to be 2.01.

B9: Ketose 3-epimerase mutant 14: amino acid-substituted mutant of SEQ ID NO: 1 (protein)
chain: MKIGCHGLVWTGRFDAEGIRYSVQKTKEAGFDLIEFPLMDPFSFDVATAKSALAEHGLTASASLGLSEATDVSSEDPAIVKAGEELLNRALDVLAELGATDFCGVIYSAMKKYMEPATEQGLSNSKAAVGRVVDRAAGLGINVSLEVVNRYETNVLNTGRQALSYLSDVKRPNLGVHLDTYHMNIEESDMFSPVLDTAEVLKYVHIGESHRGYLGTGSVDFDNFFKALGRIGYDGPVVFESFSSAVVAPDLSRMLGIWRNLWADNEELGAHANAFIRDKLTAIKTIELH
modifications: Arthrobacter histidinolovorans
For the molecule B9, the “Residual activity (%)” value in data set [1] amounted to 79.1%. For the same molecule, the T70/T50 in data set [2] came to 1.91.

B10: Ketose 3-epimerase mutant 11: amino acid-substituted mutant of SEQ ID NO: 1 (protein)
chain: MKIGCHGLVWTGRFDAEGIRYSVQKTKEAGFDLIEFPLMDPFSFDVATAKSALAEHGLTASASLGLSEATDVSSEDPAIVKAGEELLNRALDVLAELGATDFCGVIYSAMKKYMEPATEQGLSNSKAAIGRVVDRAAGLGINVSLEVVNRYETNVLNTGRQALSYLSDVKRPNLGVHLDTYHMNIEESDMFSPVLDTAEALKYVHIGESHRGYLGTGSVDFDNFFKALGRIGYDGPVVFESFSSAVVAPDLSRMLGIWRNLWADNEELGAHANAFIRDKLTAIKTIELH
modifications: Arthrobacter histidinolovorans
For B10, in data set [1], the “Residual activity (%)” value is 68.6%. The T70/T50 in data set [2] amounted to 1.95.

B11: Ketose 3-epimerase mutant 16: amino acid-substituted mutant of SEQ ID NO: 1 (protein)
chain: MKIGCHGLVWTGRFDAEGIRYSVQKTKEAGFDLIEFPLMDPFSFDVATAKSALAEHGLSVSASLGLSEATDVSSEDPAIVKAGEELLNRALDVLAELGATEFCGVIYSAMKKYMEPATEQGLSNSKAAIGRVVDRAAGLGINVSLEVVNRYETNVLNTGRQALSYLSDVKRPNLGVHLDTYHMNIEESDMFSPVLDTAEALKYVHIGESHRGYLGTGSVDFDNFFKALGRIGYDGPVVFESFSSAVVAPDLSRMLGIWRNLWADNEELGAHANAFIRDKLTAIKTIELH
modifications: Arthrobacter histidinolovorans
Regarding B11, the “Residual activity (%)” value in data set [1] stood at 54.0%. For the same molecule, the T70/T50 in data set [2] was 1.89.
